B1: ZBA121 (bispecific antibody, human IgG1, kappa, lambda, L234A L235A)
heavy 1: EVQLLESGGGLVQPGGSLRLSCAASGFTFSINAMTWVRQAPGKGLEWVSTISGSGFSTYYADSLKGRFTISRDNSKNTLYLQMNSLRAEDTAVYYCAKEVYGDYWGQGTLVTVSSASTKGPSVFPLAPSSKSTSGGTAALGCLVKDYFPEPVTVSWNSGALTSGVHTFPAVLQSSGLYSLSSVVTVPSSSLGTQTYICNVNHKPSNTKVDKRVEPKSCDKTHTCPPCPAPEAAGGPSVFLFPPKPKDTLMISRTPEVTCVVVDVSHEDPEVKFNWYVDGVEVHNAKTKPREEQYNSTYRVVSVLTVLHQDWLNGKEYKCKVSNKALAAPIEKTISKAKGQPREPQVCTLPPSREEMTKNQVSLSCAVKGFYPSDIAVEWESNGQPENNYKTTPPVLDSDGSFFLVSKLTVDKSRWQQGNVFSCSVMHEALHNHYTQKSLSLSPGK
light 1: not shown
heavy 2: not shown
light 2: DIQMTQSPSSVSASVGDRVTITCRASQGISSWLAWYQHKPGKAPKLLIYVASSLQSGVPSRFSGSGSGTDFTLTISSLQPEDFATYYCQQANSFPLTFGGGTKVEIKRTVAAPSVFIFPPSDEQLKSGTASVVCLLNNFYPREAKVQWKVDNALQSGNSQESVTEQDSKDSTYSLSSTLTLSKADYEKHKVYACEVTHQGLSSPVTKSFNRGEC
B2: IFM656 (bispecific antibody, human IgG1, kappa, lambda, L234A L235A)
heavy 1: B1 heavy 1
light 1: not shown
heavy 2: not shown
light 2: B1 light 2 with M4L, N92S
B3: OUQ507 (bispecific antibody, human IgG1, kappa, lambda, L234A L235A)
heavy 1: B1 heavy 1
light 1: not shown
heavy 2: not shown
light 2: B1 light 2 with F94A
B4: CMQ332 (bispecific antibody, human IgG1, kappa, lambda, L234A L235A)
heavy 1: B1 heavy 1
light 1: not shown
heavy 2: not shown
light 2: B1 light 2 with F94A
B5: EXX354 (bispecific antibody, human IgG1, kappa, lambda, L234A L235A)
heavy 1: B1 heavy 1
light 1: not shown
heavy 2: not shown
light 2: B1 light 2 with F94A
B6: DHJ369 (bispecific antibody, human IgG1, kappa, lambda, L234A L235A)
heavy 1: B1 heavy 1
light 1: not shown
heavy 2: not shown
light 2: B1 light 2
B7: JAK529 (bispecific antibody, human IgG1, kappa, lambda, L234A L235A)
heavy 1: B1 heavy 1
light 1: not shown
heavy 2: not shown
light 2: B1 light 2 with F94A
B8: JKJ112 (bispecific antibody, human IgG1, kappa, lambda, L234A L235A)
heavy 1: B1 heavy 1
light 1: not shown
heavy 2: not shown
light 2: B1 light 2
B9: SUR250 (bispecific antibody, human IgG1, kappa, lambda, L234A L235A)
heavy 1: B1 heavy 1
light 1: not shown
heavy 2: not shown
light 2: B1 light 2 with M4L, N92S
B10: EJD551 (bispecific antibody, human IgG1, kappa, lambda, L234A L235A)
heavy 1: B1 heavy 1
light: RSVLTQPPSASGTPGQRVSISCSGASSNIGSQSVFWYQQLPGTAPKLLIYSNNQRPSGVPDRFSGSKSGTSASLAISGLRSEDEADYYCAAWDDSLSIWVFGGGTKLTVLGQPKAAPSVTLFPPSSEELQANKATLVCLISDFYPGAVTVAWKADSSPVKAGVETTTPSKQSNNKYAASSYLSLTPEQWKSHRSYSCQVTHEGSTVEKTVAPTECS
heavy 2: QVQLQESGPGLVKPSETLSLTCTVSGGSISSDYWGWIRQPPGKGLEWIGYISYRGSTNYNPSLKSRVTISVDTSRNQFSLKLSSVTAADTAVYYCARSAGVTDFDWWGQGTLVTVSSASTKGPSVFPLAPSSKSTSGGTAALGCLVKDYFPEPVTVSWNSGALTSGVHTFPAVLQSSGLYSLSSVVTVPSSSLGTQTYICNVNHKPSNTKVDKRVEPKSCDKTHTCPPCPAPEAAGGPSVFLFPPKPKDTLMISRTPEVTCVVVDVSHEDPEVKFNWYVDGVEVHNAKTKPREEQYNSTYRVVSVLTVLHQDWLNGKEYKCKVSNKALAAPIEKTISKAKGQPREPQVYTLPPCREEMTKNQVSLWCLVKGFYPSDIAVEWESNGQPENNYKTTPPVLDSDGSFFLYSKLTVDKSRWQQGNVFSCSVMHEALHNHYTQKSLSLSPGK
chain: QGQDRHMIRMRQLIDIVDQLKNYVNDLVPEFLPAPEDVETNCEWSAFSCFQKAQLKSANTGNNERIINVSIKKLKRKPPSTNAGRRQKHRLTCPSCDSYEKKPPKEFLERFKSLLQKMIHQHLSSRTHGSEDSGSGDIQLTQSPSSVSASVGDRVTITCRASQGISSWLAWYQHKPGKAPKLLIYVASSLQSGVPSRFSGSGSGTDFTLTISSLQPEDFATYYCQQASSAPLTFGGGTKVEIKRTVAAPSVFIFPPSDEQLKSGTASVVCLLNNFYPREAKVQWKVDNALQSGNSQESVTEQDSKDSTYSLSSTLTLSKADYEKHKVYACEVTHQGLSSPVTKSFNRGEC
B11: EDV817 (bispecific antibody, human IgG1, kappa, lambda, L234A L235A)
heavy 1: B1 heavy 1
light 1: not shown
heavy 2: B10 heavy 2 with W106A
light 2: not shown
B12: GMH764 (bispecific antibody, human IgG1, kappa, lambda, L234A L235A)
heavy 1: B1 heavy 1
light 1: not shown
heavy 2: B10 heavy 2
light 2: not shown
B13: ECW089 (bispecific antibody, human IgG1, kappa, lambda, L234A L235A)
heavy 1: B1 heavy 1
light 1: not shown
heavy 2: B10 heavy 2 with W106A
light 2: not shown
B14: ETR048 (bispecific antibody, human IgG1, kappa, lambda, L234A L235A)
heavy 1: B1 heavy 1
light 1: not shown
heavy 2: B10 heavy 2
light 2: not shown
B15: BBU753 (bispecific antibody, human IgG1, kappa, lambda, L234A L235A)
heavy 1: B1 heavy 1
light 1: not shown
heavy 2: B10 heavy 2 with Y33F, Y53S, S65R, T102A, W106F
light 2: not shown
B16: GSV075 (bispecific antibody, human IgG1, kappa, lambda, L234A L235A)
heavy 1: B1 heavy 1
light 1: not shown
heavy 2: B10 heavy 2
light 2: not shown
B17: VYL308 (bispecific antibody, human IgG1, kappa, lambda, L234A L235A)
heavy 1: B1 heavy 1
light 1: not shown
heavy 2: B10 heavy 2 with W106A
light 2: not shown
B18: ULS916 (bispecific antibody, human IgG1, kappa, lambda, L234A L235A)
heavy 1: B1 heavy 1
light 1: not shown
heavy 2: B10 heavy 2 with W106A
light 2: not shown

Numbering of substitutions follows the chain as printed.

For the first assay, the target named is T1, human IL-21 receptor (IL-21R) on cells (human, UniProt Q9HBE5 20-538; P31785 23-369). The assay can be described thus: cell-based or functional assay.
T1 sequence (Q9HBE5 20-538, chain 1 of 2): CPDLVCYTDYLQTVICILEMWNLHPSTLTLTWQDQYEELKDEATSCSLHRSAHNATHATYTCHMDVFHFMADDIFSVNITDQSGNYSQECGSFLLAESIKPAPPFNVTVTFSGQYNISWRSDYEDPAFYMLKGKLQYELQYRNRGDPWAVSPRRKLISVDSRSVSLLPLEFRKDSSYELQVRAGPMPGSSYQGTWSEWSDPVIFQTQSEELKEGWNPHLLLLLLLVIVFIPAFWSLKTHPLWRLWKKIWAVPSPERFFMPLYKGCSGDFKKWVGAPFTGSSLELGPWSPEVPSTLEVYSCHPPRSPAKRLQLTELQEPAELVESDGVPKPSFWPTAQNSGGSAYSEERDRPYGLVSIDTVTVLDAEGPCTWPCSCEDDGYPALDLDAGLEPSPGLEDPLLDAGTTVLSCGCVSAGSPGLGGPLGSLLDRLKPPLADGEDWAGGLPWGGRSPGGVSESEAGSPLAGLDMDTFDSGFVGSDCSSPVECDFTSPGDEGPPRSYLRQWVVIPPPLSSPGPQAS
T1 sequence (P31785 23-369, chain 2 of 2): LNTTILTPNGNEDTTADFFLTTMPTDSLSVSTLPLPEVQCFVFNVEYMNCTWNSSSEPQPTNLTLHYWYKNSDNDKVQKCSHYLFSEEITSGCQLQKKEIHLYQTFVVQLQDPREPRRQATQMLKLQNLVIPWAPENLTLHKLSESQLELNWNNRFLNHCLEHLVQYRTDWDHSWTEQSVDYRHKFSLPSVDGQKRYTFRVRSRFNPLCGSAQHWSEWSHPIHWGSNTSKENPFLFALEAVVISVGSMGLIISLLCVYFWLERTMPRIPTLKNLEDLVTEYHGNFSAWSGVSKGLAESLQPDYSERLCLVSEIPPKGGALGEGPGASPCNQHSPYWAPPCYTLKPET
Turning to B1, the “EC50B, pSTAT3+ Jurkat PD-1 cells, PD-1 blocked” value (“EC50B, pSTAT3+ Jurkat PD-1 cells” for short) is 103 nM and the “EC50NB, pSTAT3+ Jurkat PD-1 cells” value was 0.86 nM.

Regarding B2, the “EC50B, pSTAT3+ Jurkat PD-1 cells” value stood at 15.9 nM and the “EC50NB, pSTAT3+ Jurkat PD-1 cells” value came to 0.21 nM.

For the molecule B3, the “EC50B, pSTAT3+ Jurkat PD-1 cells” value was found to be 0.42 nM and the “EC50NB, pSTAT3+ Jurkat PD-1 cells” value was determined as 24 pM.

With B4, the “EC50B, pSTAT3+ Jurkat PD-1 cells” value turned out to be 34 pM and the “EC50NB, pSTAT3+ Jurkat PD-1 cells” value worked out at 12 pM.

On to B5, for which the “EC50B, pSTAT3+ Jurkat PD-1 cells” value came out at 0.28 nM and the “EC50NB, pSTAT3+ Jurkat PD-1 cells” value is 39 pM.

As to B6, the “EC50B, pSTAT3+ Jurkat PD-1 cells” value came out at 2.56 nM and the “EC50NB, pSTAT3+ Jurkat PD-1 cells” value stood at 0.24 nM.

With B7, the “EC50B, pSTAT3+ Jurkat PD-1 cells” value came out at 0.44 nM and the “EC50NB, pSTAT3+ Jurkat PD-1 cells” value turned out to be 27 pM.

With B8, the “EC50B, pSTAT3+ Jurkat PD-1 cells” value came to 17.2 nM and the “EC50NB, pSTAT3+ Jurkat PD-1 cells” value was 0.52 nM.

As for B9, the “EC50B, pSTAT3+ Jurkat PD-1 cells” value was determined as 5.36 nM and the “EC50NB, pSTAT3+ Jurkat PD-1 cells” value is 80 pM.

For a further assay, the target named is T1, human IL-21 receptor (IL-21R) on cells. The assay can be described thus: cell-based or functional assay. This is another data set of the same source.
In the case of B10, the “EC50B, pSTAT3+ Jurkat PD-1 cells” value was 1.06 nM and the “EC50NB, pSTAT3+ Jurkat PD-1 cells” value came to 16 pM.

Turning to B11, the “EC50B, pSTAT3+ Jurkat PD-1 cells” value stood at 0.13 nM and the “EC50NB, pSTAT3+ Jurkat PD-1 cells” value was 96.9 pM.

B12: the “EC50B, pSTAT3+ Jurkat PD-1 cells” value came out at 0.872 nM and the “EC50NB, pSTAT3+ Jurkat PD-1 cells” value worked out at 13 pM.

Turning to B13, the “EC50B, pSTAT3+ Jurkat PD-1 cells” value amounted to 0.13 nM and the “EC50NB, pSTAT3+ Jurkat PD-1 cells” value came to 96.3 pM.

In the case of B14, the “EC50B, pSTAT3+ Jurkat PD-1 cells” value worked out at 0.751 nM and the “EC50NB, pSTAT3+ Jurkat PD-1 cells” value worked out at 12 pM.

For B15, the “EC50B, pSTAT3+ Jurkat PD-1 cells” value amounted to 0.312 nM and the “EC50NB, pSTAT3+ Jurkat PD-1 cells” value is 15 pM.

For B16, the “EC50B, pSTAT3+ Jurkat PD-1 cells” value was found to be 0.627 nM and the “EC50NB, pSTAT3+ Jurkat PD-1 cells” value is 23 pM.

A further assay shares this target. The assay can be described thus: cell-based or functional assay. The source holds these as a separate data set.
B17: the “EC50B, pSTAT3+ Jurkat PD-1 cells” value was determined as 56 pM and the “EC50NB, pSTAT3+ Jurkat PD-1 cells” value worked out at 0.7 pM.

B18: the “EC50B, pSTAT3+ Jurkat PD-1 cells” value was found to be 0.873 nM and the “EC50NB, pSTAT3+ Jurkat PD-1 cells” value stood at 6 pM.

These data come from patent publication EP4671273A1 (Anaveon AG, dated 2025).
